The DeepSol protein solubility set

Test: soluble on expression in E. coli; label from the status in PepcDB or PDB records

| Sequence | soluble on expression in E. coli |
| --- | --- |
| MMAIQASDMDISRFGSEIFRNSPRQSDLMIVSGTVTKKMAPRVRRIYDEMPYPKYVIAQGVCVIQGGPYNQGYSVVLGVDKVVPVDVYVPGCPPTPEALTNGIILLQKKIRGEADRLEHHHHHH | not soluble |
| LSLLLEVSGNPKAGNVDREHDFDDLKFEHFLASAAGAFPAFLEVAEKRIIGEGVLRAVKESMRWHRAENVHFGAFLLLVPLISSWDAGGMVDIAEAARNRLRRTDFRDSLSVLEAFRLSNARVVEAGELNLKDRKTEEEIAQKKINLYEWMKMAPEENLIARELVDGFKISIEGAKFLLSFGNSGKAVVELYYHLLSKFPDPLVIAKMGREYAEKITEWAEKARTEEERKELDEKLLKDGANPGTIADLTASSI | not soluble |
| MQFFDGYHYHGTTFEQSYRCYPASFIDKPQLESGDKIIMPPSALDRLASLHIDYPMLFELRNAGIERVTHCGVLEFIAEEGMIYMPYWMMQNLLLQEGDIVRVRNVTLPKGTYVKLQPHTTDFLDISNPKAILETALRNYSCLTSGDSIMVPYNNKKYFIDIVETKPANAISIIETDCEVDFAPPLDYKEPERPTAPSAAKGPAKAEEVVDEPEPKFNPFTGSGRRLDGRPLAYEPAPASSSKGKQPVVANGNGQSSVASSSEKATRAQGKLVFGANGNRAPKEAAPKVGAAKETKKEEQEKKDEPKFQAFSGKKYSLRG | soluble |
| MRIVEVYSHLNGLEYIQVHLPHIWEEIQEIIVSIDAEACRTKESKEKTKQGQILYSPVALNEAFKEKLEAKGWKESRTNYYVTADPKLIRETLSLEPEEQKKVIEAAGKEALKSYNQTDFVKDRVAIEVQFGKYSFVAYDLFVKHMAFYVSDKIDVGVEILPMKELSKEMSSGISYYEGELYNVIRQGRGVPAVPLVLIGIAP | soluble |
| MSPVHWPIHPKEYKWTVKPSPGPHAIENSLPLMIIVRDILKVADNAREARKIINSGEVLVDGRPRKNYKFPVGFMDVVSIPRTGDVYRVLPDERGRLVLHPIDEENAGFKLCKIVNKTTIKGGRTQLNLHDGRNYLSDDEFRVGDVVKLSIPEQEILERIPFEKDSLGLVTGGRHTGEIGKIKKINITRSSMPNTAVIETGAGKTFLTLKDYVFVIGKDESVISLPGGKLEHHHHHH | not soluble |
| MAGDPMIIYRQYHHEGAPVYEIITKTFQHVSIKCDDSFSDTEIFKLLSLLQDDIDHMKVSLEHHHHHH | not soluble |
| MEQQFILRLHESIKHVVDLGNSTIDICDDRSVVLTHNNKKYPGIVVRLPCIVESQKTMDSRQHYKVADISTLVVVYPDDSFDFDKEREMYELSGLSPPLKYVKARRFRKKSSKIEYVEEIEKKVNDLLEKDMKARSVEVVAKEEKETSDDLDVLAAEIENKLVDNAEAHKEEVQSRPDEIGEKKEEQPRNEEIERLEKGIEEKRRQMESALNPILQKRFESQLNVLLKELEDVKKGMEME | soluble |
| MSLKAIIYCRVSTEKTSQETSLARQKHELLTLANKHALEVVATLEERASGFSLDRPVLLECIDAFQRGQADILLCQDDTRLARGHSKIALLHQLRKLGVSIYTIRDQGELRLSEADEMVLDIVAIVEEYQRKLHNKKIKRGMKQAVKNGYRPERNIKQGVSGGRERKELPIKEIVRLRQKNLTFHEIALTLQGLGFNVSKATVHRRYQEYMDEQLHGEGHHHHHH | soluble |
| MTSKIALFDQTLIASLLQPLSLNQPDFKAYKTKVKLKISEQRNETSGEKELKFEISRSDDFEFLFSETLNNEKYQILARDHDLTVDFDAFPKVIIQHLLCKNIVKNLEEDGEVDARKKAGYHSIADPGKPTEINIILDAEKNFCSFELFSKTPISKGKIFSIKLHAVRGDHLISHLLKICSSQAVKLSTFYKSADELASLRQKCGDLEKQVEKLSGVKEEFEEMSEKFKELEDEVELVKEERENIRLLVEDKEDEVADLKQDTESLQKQLEENQEELEIVGNMLREEQGKVDQLQKRNVAHQKEIGKLRAELGTAQRNLEKADQLLKRNSQQQNQQSLDMRKLGELEADLKEKDSMVESLTETIGILRKELENEKLKAAENMDSFEKLSMENENLKEKIAHYRAQRFSPAPSGLPGLQTGLTNRLTPSFKPVLGPHTPYGANLNSRTPFRDNTTLNFQNSTIATPHAFRFNSQLIADETTGSSVTNTPPAQR | not soluble |
| MNRMMALVMAGGRGTRLAIDCEKPLLEVAGRPMIDHVLEALESATGVDGIIVVTSPHTPMTEDHVRGRHPIFRASGGGYVEDLREVLSHLEESYHEPLLVINSDLPLVRPSTIDWIISSYHSCPEPAMCVAVPDDLCRRHGLDFSGSLDGLVPCGVNILMSKNRVQEQRILEASMLELAVNINSCRDLKVLEKILGEIDGREEAHKRGREVLELEHHHHHH | soluble |
| MPIRAMEKATAGKLLTRAEALSLLTEGDLLALGRLADAVRRRMHPENLVTFVVDRNVNYTNVCESKCKFCAFYRDEAAPDAYLLAEEAIFAKIAELVEHGGTQLLMQGGLHPQLGIDWFEDLFRGIKARFPQVQNHSLSPAEITQIATVSKLTIPETVRRLREAGLDSIPGGGAEILVDSVRQEISPRKIGWEGWAAVMSEAARQGMATTATMMFGSRETPEDIVEHLFRVRELQAAGGSFTAFIPWTYQPGNTELGGTGATGVEYLKVLALSRIVLDNIPSIQASWVTQGAAMAQVSLFFGANDLGGTMLEENVVAAAGCTFRMSREEMVELIREAGFRAAQRTTLYSIIREY | not soluble |
| MGSDKIHHHHHHMIKHIFCDLDGTLYENGTITKEDIVAIEEIEKKGVQFNVATGRIFKQAHNIIKDSLDMNGYYVCENGSFIYDKDYNVIFKRTIDDNLVKKVIDRFESSDAQLYFKYKGDVIVGSDTTAFRHYSSDFIVDPDFEKRSSFDNLIGNIGVCSENLEELSRIELYLKSEFSEVLEIYFSGTYTLNIVPKSVSKRGSIEHVIKTLNVSPDEVATIGDSPNDICMLEGFKYSFAMSKAREDVKQSANYVVDSVKSAIDVIMEINS | not soluble |
| LGQTAYQKDSLARLARRGDELGTLARDFNRMGERLQSLIGSQRQLLRDVSHELRSPLARLRIALALAERAEPEARAQMWPRLEQECDRLEALIGEILALARLDAEPGASQRIALLPLLQRLREDALLLAPEQDIRLEVAPDLSIDGWPDMFERAVDNLLRNAVRFNPVGQPLEVRASSAGDYLRLSVRDHGPGIAAELQEQLGEPFFRAPNQSSPGHGLGLAIARRAIERHGGHLRLGNHPDGGFIATLSLPLRRKAT | not soluble |
| AEFKHVFVCVQDRPPGHPQGSCAQRGSREVFQAFMEKIQTDPQLFMTTVITPTGSMNACMMGPVVVVYPDGVWYGQVKPEDVDEIVEKHLKGGEPVERLVISKGKPPGMF | soluble |
| MDVSLESLVNSLQATRSTLLSEIEMLNDTEVNVKPRRDKWSIIQILHHLHLVEQSVTSALVYALQKNERNMTPFKDLQLTLDRTHKREAPQQMQPTETLMKKQQGIQLLEHSRQELLHALHSVIDEKDLFENGLKHPVFNDLNLYQWVQFLDLHEQRHLTQLKEAKHAILQR | not soluble |
| MFFERHGGGERAILVHLDGQDPEAREDPQEFQELALSAGAETVAFVSVPRHRPTAKYLVGSGKVEELRDLVKAEQVDLVIFNHILTPSQERNLERVFECRVIDRTGLILDIFAQRARTHEGKLQVELAQLEHMSTRLVRGWTHLERQKGGIGLRGPGETQLETDRRLLRVRLRQIKARLEKVRSQREQARRGRKRADIPSVSLVGYTNAGKSTLFNAVTASDVFAADQLFATLDPTLRRLELDDLGPIVLADTVGFIRHLPHKLVEAFRATLEESSNSDLLLHVIDAHEPERMAQIEQVMVVLGEIGAQDLPILEVYNKLDLLEGVEPQIQRDPDGKPQRVWLSARDGQGLDLLKQAIAELLGEDLFVGTLRLPQRFARLRAQFFQLNAVQKEDHDDEGVSLLAVRLPRAELNRLVSREGMQPSEFIEQHTLQLEHHHHHH | soluble |
| MNEKQKRFADEYIMNGCNGKKAAISAGYSKKTAESLASRLLRNVNVSEYIKERLEQIQEERLMSITEALALSASIARGEPQEAYSKKYDHLNDEVEKEVTYTITPTFEERQRSIDHILKVYGAYIDKKEITQKNIEINIGEYDDES | not soluble |
| MSLSRSFDTAPLGGRLNLTVADAEVFRNFLPVGQTVKGSLNAAVTLGGSIADPHLGGSINGDKLYYRNQTQGIILDNGSLRSHIAGRKWVIDSLKFRHEGTAELSGTVGMENSGPDVDIGAVFDKYRILSRPNRRLTVSGNTRLRYSPQKGISVTGMIKTDQGLFGSQKSSMPSVGDDVVVLGEVKKEAAAPLPVNMNLTLDLNDGIRFAGYGADVTIGGKLTLTAQSGGSVRGVGTVRVIKGRYKAYGQDLDITKGTVSFVGPLNDPNLNIRAERRLSPVGAGVEILGSLNSPRITLTANEPMSEKDKLSWLILNRAGSGSSGDNAALSAAAGALLAGQINDRIGLVDDLGFTSKRSRNAQTGELNPAEQVLTVGKQLTGKLYIGYEYSISSAEQSVKLIYRLTRAIQAVARIGSRSSGGELTYTIRFDRFSGSDEGHHHHHH | not soluble |
| MGSDKIHHHHHHMSAIHIKYPALTFKAGQRALRHIRERGLQAADVGVLPGAAGGPKPLGIQGLDLALFGEWLPSAPRQRALIGASIGAWRFASACLDDPVAGIRRLGELYTEQDFAKGVTPAEISRSCQRMLDDLLEGRDGQLLANPHYRLNILVVKSHGQLAHDHRGRLGLGLGSVVASNLLGRSRLARHFERIILHDGRAAPPLDTLTDFPSRYLPLDLTNLRHALLASGSIPMVMQGVKDIPGAGAGTYRDGGLLDYHLDLPYRGDDLVLYPHFTDKVVPGWFDKALPWRKGDATRLQNVLLMTPSPQYLAALPYGKLPDRNDFKRFMGDAPGRKRYWYKAIAESQRLGDELLELTATGRLHERLQAL | not soluble |
| MGSDKIHHHHHHENLYFQGMSKVFVNISLSLDGFMAPEGMDMAHFSDPTYKNWGAKWGALMAWALSQQYLREKLKLGTGGETGPVNDMVRHTFERTGAHIMGKRMFEGGERGWPEEAPFHTPVYVLTHERRNPWVRPGGTTFYFVNDGPEQALALAREAAGERDIRISGGANVIQQYLNLGLVDELEIALIPVIFGGGRRLFENLHEPLPQFRIDRVLASPTATHLRYVRL | soluble |
| MGSDKIHHHHHHMLKKVSRLDYFTLQVFIGLVELKSGSAVAERLRTTQSKVSRCLTCLREVLEDELFIRQQYGFEPNQVAVTIYPMVKTILEQYDKIVAATIDKGAEPYQLSVATYEQWSLMAMNCVHNTCHCIEGGVSINIQPWTDKIHQRLCQGKVDCSISTEPINHPMVNNFKLGDITHFFIVARRGHPILSSDAPLTQMFNYHIALVNTHLQEQEPHPIEVYAKARHIEIRVALKSPSLRMVVDHVSHSEDIALLSSAMSMAYFENRDDVDYLDISKIWLQTTELETQSYYLHCHKGIKPELTHCLRRVLTEKLHEMQAHCDQVAQENTRDLPTL | not soluble |
| MALTSVSVYELSRLGPPQQPVRRRSNSTKVRRKDAELGSVDRKRNPKRNQIQPQHNESITITYMGRPRSPSVDLPTSPPIPSVIRQRRSSSTVAKKLPQSASNPSFLRKQGSSSSLSNGLWTDCIEVVNEIGVMAKMESRKIRRLRMAVYRRVRISDDEEMVLTASRALSKCHGWTLDTCHDYLPVIIDNIISMDTSNRIIAAEGLAAIADSLGERLVKFAGMNSHRIGVDIAAEERSEKAKACIQLLRSVVRKRDWYYRHLDVESIDRLDATMERLKSI | not soluble |
| MDKSLLLELPILLCCFRALSGSLSMRNDAVNEIVAVKNNFPVIEIVQCRMCHLQFPGEKCSRGRGICTATTEEACMVGRMFKRDGNPWLTFMGCLKNCADVKGIRWSVYLVNFRCCRSHDLCNEDL | not soluble |
| MSLSTRSRIREERKDPLSALAREYGGSKRNALLKWCQKKTEGYQNIDITNFSSSWNDGLAFCALLHTYLPAHIPYQELNSQDKKRNFTLAFQAAESVGIKSTLDINEMARTERPDWQNVMLYVTAIYKYFETEGHHHHHH | soluble |
